In publication PMC6338834 one finds binding result and Kd data, which are given here for 2 molecules.

One series has as its target RPA (Saccharomyces cerevisiae, UniProt P22336;P26754;P26755 1-621;1-273;1-122). Kind of series: EMSA. Background: In EMSA bound probe runs differently from free probe, usually more slowly.
The next series addresses T1, Mcm10 (Saccharomyces cerevisiae, UniProt P32354 1-571).
T1 sequence: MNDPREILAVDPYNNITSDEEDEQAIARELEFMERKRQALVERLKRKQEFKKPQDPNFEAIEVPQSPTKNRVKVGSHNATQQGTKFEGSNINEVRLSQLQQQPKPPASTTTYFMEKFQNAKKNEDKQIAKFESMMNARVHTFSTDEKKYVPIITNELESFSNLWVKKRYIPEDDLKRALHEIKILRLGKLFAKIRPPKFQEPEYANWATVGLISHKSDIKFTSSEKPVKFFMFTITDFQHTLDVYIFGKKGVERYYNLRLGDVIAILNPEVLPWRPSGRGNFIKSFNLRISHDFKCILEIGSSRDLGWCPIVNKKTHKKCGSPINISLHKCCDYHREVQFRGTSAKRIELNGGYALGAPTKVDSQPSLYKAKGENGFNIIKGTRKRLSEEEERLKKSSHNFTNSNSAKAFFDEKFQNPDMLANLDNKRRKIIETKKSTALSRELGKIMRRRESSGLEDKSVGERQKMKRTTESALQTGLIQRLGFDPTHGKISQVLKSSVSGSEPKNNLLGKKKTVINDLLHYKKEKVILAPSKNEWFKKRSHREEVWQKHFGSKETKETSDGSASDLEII
As to the kind of experiment: fluorescence anisotropy.

As usually defined, the Kd is the free concentration of one partner at which half of the binding sites on the other are occupied at equilibrium, for simple one-to-one binding.

Sequence of RPA (P22336 whole entry, chain 1 of 3): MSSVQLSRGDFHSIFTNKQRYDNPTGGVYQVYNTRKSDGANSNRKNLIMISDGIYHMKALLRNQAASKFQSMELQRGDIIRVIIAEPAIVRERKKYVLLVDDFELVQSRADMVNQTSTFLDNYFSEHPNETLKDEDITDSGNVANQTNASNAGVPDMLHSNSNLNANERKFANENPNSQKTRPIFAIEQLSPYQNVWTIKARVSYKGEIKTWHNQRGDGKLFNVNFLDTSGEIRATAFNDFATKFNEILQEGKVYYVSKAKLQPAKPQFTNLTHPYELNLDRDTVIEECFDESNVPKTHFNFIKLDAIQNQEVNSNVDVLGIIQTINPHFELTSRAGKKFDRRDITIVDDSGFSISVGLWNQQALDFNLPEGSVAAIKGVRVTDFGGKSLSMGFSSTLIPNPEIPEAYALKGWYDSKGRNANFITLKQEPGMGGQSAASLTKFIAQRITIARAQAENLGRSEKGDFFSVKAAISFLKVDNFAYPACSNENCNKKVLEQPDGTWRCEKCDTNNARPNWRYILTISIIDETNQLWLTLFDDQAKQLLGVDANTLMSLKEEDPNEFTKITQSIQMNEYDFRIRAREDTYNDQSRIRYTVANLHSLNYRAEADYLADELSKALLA
Sequence of RPA (P26754 whole entry, chain 2 of 3): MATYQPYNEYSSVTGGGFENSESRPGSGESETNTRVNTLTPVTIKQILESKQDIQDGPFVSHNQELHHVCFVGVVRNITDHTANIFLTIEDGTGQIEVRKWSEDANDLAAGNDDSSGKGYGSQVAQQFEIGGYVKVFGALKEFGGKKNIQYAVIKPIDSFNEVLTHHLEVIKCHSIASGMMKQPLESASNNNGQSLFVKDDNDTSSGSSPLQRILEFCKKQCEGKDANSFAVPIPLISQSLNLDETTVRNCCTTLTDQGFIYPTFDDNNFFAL
Sequence of RPA (P26755 whole entry, chain 3 of 3): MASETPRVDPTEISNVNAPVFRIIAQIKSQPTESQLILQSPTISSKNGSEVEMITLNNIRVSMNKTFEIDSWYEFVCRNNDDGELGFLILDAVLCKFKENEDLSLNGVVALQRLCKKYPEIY

B1: 5' flap lagging strand oligo (ssDNA)
DNA: TTTTTTTTTTTTTTTTTTTTTTTTTTTTTTTTTTTTTTTTTTTTTTTTTGACGCTGCCGAATTCTGGCTTGCTAGGACATTACAGGATCGTTCGGTCTC
modifications: last 5 linkages at 3' end thiodiester (phosphorothioate)
Regarding B1, the binding result with RPA is “binds”.

B2: 3' FITC 60mer ssDNA (ssDNA)
DNA: TTTTTTTTTTTTTTTTTTTTTTTTTTTTTTGGTGAGGGTTGGGAAGTGGAAGGATGGGCT
Take B2: binding with Mcm10 was characterised by a dissociation constant (Kd) of 50 nM.
